Source: patent US20230332166A1, “FORMATE-INDUCIBLE PROMOTERS AND METHODS OF USE THEREOF” (Imperial College Innovations Ltd, priority 2020, published 2023)

B1: Yali0E15840: putative Y. lipolytica FDH gene; promoter region SEQ ID NO: 10 (1 Kb) and 26 (1.5 Kb) (nucleic acid, listed as Yarrowia lipolytica)
DNA: ATGAAGGTCCTTCTTGTTCTTTACGATGCTGGCTCTCACGCTGCTGACGAGCCCAAGCTCCTTGGATGCACCGAAAACGAGCTCGGTATCCGAGACTGGCTCGAGTCCCAGGGCCACACGCTTGTCACCACCTCTTCCAAGGATGGCGCCGACTCTGTGCTCGACAAGGAAATTGTTGACGCCGACGTTGTCATCACCACCCCCTTCCACCCCGGCTACATCAACAAGGAGCGAATCGACAAGGCCAAGAAGCTCAAGATCTGCATCACCGCCGGAGTCGGCTCGGACCACGTTGATCTCGATGCTGCCAACGCTCGAGATATCGCTGTTCTGGAGGTCACTGGTTCTAATGTCCAATCCGTCGCTGAGCATGTTGTCATGACTATGCTCGTTCTGGTCCGAAACTTTGTCCCCGCCCACGAGCAGATCATTTCCGGCGGGTGGGACGTTGCGGCGGTCGCCAAGGACTCCTACGATCTAGAGGGTAAGGTCATCGGTACCGTGGGAGGCGGCCGAATCGGTCAGCGTGTCCTCAAGCGATGCAAGCCTTTCGACCCCATGGAAATGCTCTACTACGATTACCAGCCCATGCCTGCCGACGTCGAAGAGGAGATTGGCTGCCGACGAGTCGAGTCGCTCGAGCAAATGCTTTCTCTGTGTGATGTTGTCACTATCAACTGCCCTCTGCACGCCTCCACCAAGGGTCTCTTCAACAAGGAGCTCATCTCCCACATGAAGGATGGAGCCTGGCTCGTCAACACTGCTCGAGGAGCCATCTGCGTCACCGAGGACATTGTCGAGGCCCTAGAGTCCGGCAAAATCCGAGGATACGGAGGAGACGTCTGGTTCCCCCAGCCTGCCCCCAAGGACCACCCCTGGAGAACCATGCGAAACAATTACGGTGGTGGAAACGCCATGACTCCCCACATCTCCGGAACCTCCATTGATGCCCAGGGCCGATACGCTGAGGGTACCAAGAAGATCCTCGAGGTCTTTTTCTCGGGCAAGCAGGATTATCGACCCCAGGATATCATCTGTATCAACGGCCATTATGGTACCAAGGCCTACGGTGACGACAAAGAGCATAAGGAGCATCAGCTCAAGTAA
modifications: YALI0E15840g
B2: Yali0F13937: putative Y. lipolytica FDH gene; promoter region SEQ ID NO: 6 (1 Kb) and 22 (1.5 Kb) (nucleic acid, listed as Yarrowia lipolytica)
DNA: ATGAAGGTCCTTCTTATTCTCTATGATGCCGGCTCTCACGCTAAGGATGAGCCCAAGCTCCTTGGATGCACCGAGAACGAGCTCGGTATCCGAGACTGGCTCGAGTCTCAGGGCCATACTCTCGTTACCACCTCTTCCAAGGATGGCGCCGACTCTGTGCTTGACAAGGAGATTGTTGACGCCGATGTAGTCATCACTACCCCCTTCCACCCTGGCTACATCAACAAGGAGCGAATCGACAAGGCCAAGAAGCTCAAGATCTGCATCACTGCCGGTGTGGGCTCGGACCACGTTGATCTCGATGCTGCCAACGCTCGAGATATCGCTGTTCTGGAAGTCACTGGTTCTAATGTCCAGTCCGTCGCTGAGCATGTTGTCATGACTATGCTCGTTCTGGTCCGAAACTTTGTCCCCGCCCACGAGCAAATCATCTCTGGCGGCTGGGATGTTGCTGCTGTCGCCAAGGACTCCTACGATCTCGAGGGTAAGGTCATCGGTACCGTTGGTGGCGGCCGAATCGGCCAGCGTGTCCTCAAGCGATGCAAGCCCTTCGACCCCATGGAAATGCTCTACTACGACTACCAGCCCATGCCTGCCGACGTCGAAAAGGAGATTGGTTGCCGACGAGTTGAGTCTCTGGAGGAGATGCTCTCTCTGTGTGATGTCGTGACCATCAATTGCCCTCTGCACGCCTCCACCAAGGGCCTCTTCAACAAGGAGCTCATCTCGCACATGAAGAATGGTGCTTGGCTCGTCAACACTGCTCGAGGAGCCATCTGCGTTACCGAGGACATTGTCGAGGCACTCGAGTCCGGCAAGATGCGAGGATACGGTGGTGATGTCTGGTTCCCCCAGCCTGCCCCCAAGGACCATCCCTGGAGAACCATGCGAAACAAGTACGGTGGTGGAAACGCCATGACTCCTCATATCTCTGGCACTTCCATCGATGCCCAGGGCCGATACGCCGAGGGAACAAAGAAGATCCTCGAGGTCTTCTTCTCTGGCAAGCAGGATTACCGACCCCAGGACATTATCTGCATCAACGGTCACTACGGTACCAAGGCTTACGGTGACGACAAGGAGCACAAGGAGCACCAGCTTAAGTAAACATTTTTATAGTAACATCTCATTTTGT
modifications: YALI0F13937g
B3: Yali0B22506: putative Y. lipolytica FDH gene; promoter region SEQ ID NO: 4 (1 Kb) and 20 (1.5 Kb) (nucleic acid, listed as Yarrowia lipolytica)
DNA: ATGAAGATTCTCCTTATCCTTTACGACGCCGGCTCCCACGCTGCTGACGAACCCAAGCTGCTAGGTTGCACCGAGAACGAGCTCGGCATCCGATCCTGGCTCGAGTCCCAGGGCCATACCCTGGTCACCACCTCTTCCAAGGAGGGTGCTGACTCTGTTCTCGACAAGGAGATTGTTGATGCCGATGTTGTCATCACCACTCCCTTCCACCCCGGCTACATCACCCGAGAGCGAATTGCCAAGGCCAAGAACCTCAAGATCTGTGTCACTGCCGGTGTTGGCTCTGACCACGTTGATCTTGCTGCCGCCAACGAGAGAAACATTGCCGTGCTCGAGGTCACTGGTTCCAACGTGACTTCTGTTGCTGAGCACGTTGTCATGACCATGCTTGTTCTTGTCCGAAACTTCGTGCCTGCCAACGAGCAGGTTCGAGGCGGCGGCTGGGACGTTGCCGGTGTTGCCAAGGATTCCTACGATATTGAGGGTAAGGTCATTGGTACCGTCGGAGTCGGCCGAATCGGCAAGCGAGTGCTCCAGCGACTCAAGCCCTTCGACCCCAAGGAGCTGCTCTACTACGACTATCAGCCTCTGTCTGCTGCCGACGAGAAGGAGATTGGCGCCCGACGAGTTGAGAAGCTCGAGGACATGCTTGCCCAGTGTGATGTTGTCACCATCAACTGCCCCCTGCACGAATCCACCAAGGGTCTCTTTAACAAGGAGCTGCTGTCCCACATGAAGAAGGGCGCCTGGCTCGTCAACACCGCTCGAGGAGCCATCTGTGTAAAGGAGGACGTTGCCGCCGCTCTCAAGTCTGGTCAGCTCCGAGGCTACGGCGGAGATGTCTGGTTCCCCCAGCCTGCCCCTGCTGACCACCCCTGGAGAAAGATGGTCAACAAGTACGGTGCCGGTAACGCCATGACCCCCCACATGTCTGGAACCTCTCTGGACGCCCAGGCCCGATACGCTGCTGGTGTCAAGCAGATTCTCGACGAGTTCTTCTCCGGCCGAGAACAGTACCGACCCCAGGACATTATCTGCTACGGTGGTAACTACGGCACCAAGGCCTACGGAGACGACAAGAAGGTCGTCGACAAGAAGTAATCCGTCCAACGTTCTTCTCAGCGCACAGGTACCTATACTACTGGTAGTATCAGGTTAAACCTCTTTTAGTTTAATGATAAGATAAGATAACATACCGT
modifications: YALI0B22506g
B4: Yali0B19976: putative Y. lipolytica FDH gene; promoter region SEQ ID NO: 9 (1 Kb) and 25 (1.5 Kb) (nucleic acid, listed as Yarrowia lipolytica)
DNA: ATGAAGGTCCTTCTTGTTCTCTACGACGCCGGCTCCCACGCCAAGGATGAGCCCAAGCTACTTGGATGCACTGAAAACGAGCTCGGTATCCGAGACTGGCTCGAGTCCCAGGGCCATACCCTGGTAACTACCTCTTCTAAGGATGGCGCCGACTCCGTTCTCGACAAGGAGATTGTTGATGCCGATGTTGTCATCACTACCCCCTTCCATCCCGGTTACATCAACAAGGAGAGAATTGACAAGGCCAAGAAGCTCAAGATCTGTATCACTGCCGGTGTTGGTTCTGACCATGTCGATCTAGATGCCGCCAACGCCCGAGACATTGCTGTCCTTGAAGTCACTGGCTCCAACGTTCAGTCGGTCGCTGAGCATGTTGTCATGACCATGCTTGTTCTGGTCAGAAACTTCGTCCCTGCTCATGAGCAGATCATTTCTGGTGGCTGGGACGTTGCCGCTGTCGCCAAGGACTCTTACGACCTAGAGGGTAAGGTCATTGGTACAGTTGGAGGTGGGCGAATCGGTCAGCGAGTCCTCAAGCGATGCAAGCCCTTCGACCCCATGGAGATGCTCTACTACGACTACCAGCCCATGCCCGCTGATGTCGAGAAGGAGATTGGCTGTCGACGAGTGGAGTCTCTCGAGGAGATGCTCTCTCTCTGTGACGTTGTCACCATCAACTGTCCTCTGCACGCCTCCACCAAGGGCCTCTTCAACAAGAAGCTCATCTCCCACATGAAGGATGGCGCCTGGCTCGTCAACACCGCTCGAGGAGCTATTTGTGTCACTGAGGACATTGTTGAGGCTCTCGAGTCCGGAAAGATTCGAGGCTACGGTGGTGATGTCTGGTTCCCTCAGCCCGCCCCAAAGGACCACCCCTGGAGAACAATGCGAAACAAGTACGGTGGAGGAAACGCCATGACCCCTCATATCTCTGGTACTTCTATTGATGCCCAAGGCCGATACGCTGAGGGCACCAAGAAAATCCTTGAGGTCTTCTTCTCAGGAAAGCAAGACTACCGACCCCAGGATATCATCTGTATCAACGGTCACTACGGTACCAAGGCTTACGGTGACGACAAGGAGCACAAGGAGCACAAGGAGCACGAGGTCAAATAAGCTATCAGCTCTATAGTACTGTACAGTAGGTACAATAGGATCTTGATATTACAGT
modifications: YALI0B19976g

test system: Y. lipolytica JMY2900; experiment: qPCR of putative FDH gene transcription upon induction with sodium formate; format: cell-based, Yarrowia lipolytica; conditions: YNB with 0.5% sodium formate, 6 h, 28° C., vs absence of formate; qPCR normalised to actin
Protocol: FIG. 3: Transcription levels of the FDH genes of Yarrowia lipolytica W29 measured by qPCR, normalised to actin (ACT1) expression. Yarrowia lipolytica was grown in YNB supplemented with 1% glucose and 0.5% yeast extract at 15 h at 28° C., before being washed and transferred into YNB with 0.5% of sodium formate for induction and grown for 6 h.
The inducibility of the putative FDH genes with formate was then tested by qPCR. YALI0E14256g1_1 and the nine putative FDH with the highest % identity to YALI0E14256g1_1 were selected for testing. Y. lipolytica JMY2900 was cultured in YNB media supplemented with 1% glucose and 0.5% yeast extract for 15 h at 28° C. Cells were washed with distilled water and cultured in fresh liquid YNB media supplemented with 0.5% sodium formate at 28° C. with agitation at 160 rpm, before being harvested at 6 h post-inoculated. Cells were frozen in liquid nitrogen and stored at −80° C. RNA was subsequently extracted using the RNeasy Mini Kit (Qiagen), and 2 μg was treated with DNAse (Ambion; Life Science Technologies, Saint-Aubain, France). cDNA was synthesised using the Maxima First Strand cDNA synthesis kit (Thermo Fischer Scientific, Villebon sur Yvette, France). qPCR was then performed using the SYBRgreen mastermix (Thermo Fischer Scientific) with gene-specific primers designed using Primer3 software. Relative expression levels were calculated using ΔCT and ΔΔCT methods. Expression levels were normalised to actin.

| Molecule | Fold increase on induction (fold change expression of putative FDH genes upon induction with sodium formate) [fold] |
| --- | --- |
| B1 | 5.7 |
| B2 | 38.6 |
| B3 | 2.9 |
| B4 | 11.4 |
